Data as given in patent US20230295310A1 (ABCELLERA BIOLOGICS, published 2023).

Columns and labels:
[1] = biological target: T1, human CD3 expressed on cells (human, UniProt P07766 23-207; P04234 22-171; P09693 23-182); assay: flow cytometry, 25 nM
T1 construct: whole, on cells; CD3 complex on Jurkat cells and on human primary T cells
Method: (§1) Purified antibodies were confirmed to bind CD3 expressed on cells using the CytoFLEX S or LX flow cytometers (Beckman Coulter). Antibodies were diluted to 25 nM in FACS buffer (PBS+2% FBS) and were incubated with CD3-expressing cells for 30 minutes at 4° C. […] The median fluorescence intensity of the binding signal for each antibody was normalized to the isotype control to obtain a fold over isotype value. An antibody with a fold over isotype (FOI) of ≥10 was considered to be positive for binding.

[2] = biological target: T2, cynomolgus monkey CD3 expressed on primary T cells (cynomolgus monkey, UniProt Q95LI5 22-198; Q95LI8 22-171; Q95LI7 23-181); assay: flow cytometry, 25 nM, cyno primary T cells
T2 construct: whole, on cells; CD3 complex on purified cynomolgus monkey T cells; also called cyno CD3
T2 sequence (Q95LI5 22-198, chain 1 of 3): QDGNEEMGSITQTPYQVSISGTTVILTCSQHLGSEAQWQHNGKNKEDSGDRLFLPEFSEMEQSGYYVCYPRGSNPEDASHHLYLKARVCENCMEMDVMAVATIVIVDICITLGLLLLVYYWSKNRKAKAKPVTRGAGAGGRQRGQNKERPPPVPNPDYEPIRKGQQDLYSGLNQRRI
T2 sequence (Q95LI8 22-171, chain 2 of 3): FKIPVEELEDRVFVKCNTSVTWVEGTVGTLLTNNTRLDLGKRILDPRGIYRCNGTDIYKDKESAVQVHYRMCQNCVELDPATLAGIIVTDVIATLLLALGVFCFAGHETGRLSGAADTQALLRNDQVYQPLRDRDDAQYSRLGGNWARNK
T2 sequence (Q95LI7 23-181, chain 3 of 3): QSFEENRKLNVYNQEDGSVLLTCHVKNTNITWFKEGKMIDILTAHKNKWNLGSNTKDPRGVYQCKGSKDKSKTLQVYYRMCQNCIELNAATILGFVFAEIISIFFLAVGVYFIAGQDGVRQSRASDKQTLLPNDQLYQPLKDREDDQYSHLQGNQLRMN
Method: as §1

[3] = biological target: T3, cynomolgus monkey CD3 expressed on cyno primary T cells (cynomolgus monkey, UniProt Q95LI5 22-198; Q95LI8 22-171; Q95LI7 23-181); assay: flow cytometry, cyno primary T cells
T3 construct: whole, on cells; CD3 complex on purified cynomolgus monkey CD3 pan T cells; also called cyno CD3
T3 sequence (Q95LI5 22-198, chain 1 of 3): as the sequence (Q95LI5 22-198, chain 1 of 3) above
T3 sequence (Q95LI8 22-171, chain 2 of 3): as the sequence (Q95LI8 22-171, chain 2 of 3) above
T3 sequence (Q95LI7 23-181, chain 3 of 3): as the sequence (Q95LI7 23-181, chain 3 of 3) above
Method: as §1

T1 sequence (P07766 23-207, chain 1 of 3): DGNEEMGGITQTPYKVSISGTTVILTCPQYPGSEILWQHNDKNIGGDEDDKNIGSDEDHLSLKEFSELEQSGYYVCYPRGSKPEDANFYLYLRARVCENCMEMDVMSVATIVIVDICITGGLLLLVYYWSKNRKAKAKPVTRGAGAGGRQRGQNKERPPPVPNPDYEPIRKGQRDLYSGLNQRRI
T1 sequence (P04234 22-171, chain 2 of 3): as the sequence (Q95LI8 22-171, chain 2 of 3) above, with V5I, K15N, V20I, T32S, N33D, N34I, A64T, N74S, L83V, R141H counted along it
T1 sequence (P09693 23-182, chain 3 of 3): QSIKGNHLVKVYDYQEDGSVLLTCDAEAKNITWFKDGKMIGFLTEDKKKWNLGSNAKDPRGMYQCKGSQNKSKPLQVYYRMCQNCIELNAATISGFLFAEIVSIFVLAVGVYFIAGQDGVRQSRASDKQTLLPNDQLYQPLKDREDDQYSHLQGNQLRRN

Binder	Human primary T Cell Binding (FOI) [1] [FOI]	Jurkat Cell Binding (FOI) [1] [FOI]	binding result [2]	binding result [3]
mAb 42 (antibody, V domains shown) VH: QAQLVQSGSELKKPGASVKVSCKASGYTFTKHSMNWVRQAPGQGLEWMGWINTNTGNPTYAQGFTGRFVFSLDTSVTTAYLQISSLKAEDTAVYYCAREGDYDFWSGFFNFDYWGQGTLVTVSS VL: DIQMTQSPSSLSASVGDRVTITCRASQGIRNDLGWYQQKPGKAPKRLIYAASSLQSGVPSRFSGSGSGAEFTLTISSLQPEDFATYYCLQHNSYPRTFGQGTKVEIK	96.2	111	no binding (tested: FOI >=10 = positive)	
mAb 44 (antibody, V domains shown) VH: QAQLVQSGSELKKPGASVKVSCKASGYTFTRHAMNWVRQAPGQGLEWMGWINTNTGNPTYAQGFTGRFVFSLDTSVSTAYLKISSLKAEDTAVYYCVREGDYDFWSGFFNFDYWGQGTLVTVSS VL: DIQMTQSPSSLSASVGDRVTITCRASQGIRNDLGWFQQKPGKAPTRLIYAASSLQSGVPSRFSGSGSGAEFTLTISSLQPEDFATYYCLQHNSYPRTFGQGTKVEIK	110	131	no binding (tested: FOI >=10 = positive)	
mAb 47 (antibody, V domains shown) VH: QAQLVQSGSELKKPGASVKVSCKASGYTFTKHSMNWVRQAPGQGLEWMGWINTNTGNPTYAQGFTGRFVFSLDTSVTTAYLQISSLKAEDTAVYYCAREGDYDFWSGFFNFDYWGQGTLVTVSS VL: DIQMTQSPSSLSASVGDRVTITCRASQGIRNDLGWYQQKPGKAPKRLIYAASSLQSGVPSRFSGSGSGTEFTLTISSLQPEDFATYYCLQHNSYPRTFGQGTKVEIK	136	112	no binding (tested: FOI >=10 = positive)	
mAb 50 (antibody, V domains shown) VH: QAQLVQSGSELKKPGASVKVSCKASGYTFTRHAMNWVRQAPGQGLEWMGWINTNTGNPTYAQGFTGRFVFSLDTSVTTAYLQISSLKAEDTAVYYCAREGDYDFWSGFFNFDYWGQGTLVTVSS VL: DIQMTQSPSSLSASVGDRVTITCRASQGIRNDLGWFQQKPGKAPTRLIYAASSLQSGVPSRFSGSGSGAEFTLTISSLQPEDFATYYCLQHNSYPRTFGQGTKVEIK	86.4	92.5	no binding (tested: FOI >=10 = positive)	
mAb 46 (antibody, V domains shown) VH: EGQLVESGGGLVQPGGSLRLSCVASGFTLSSYTLNWVRQAPGKGLEWVSYISSTSRTIYYSDSVKGRFTISRDNAKNSLYLQMNSLRDEDTALYYCAREDYYDSSGFDYWGQGTLVTVSS VL: AIRMTQSPSSFSASTGDRVTITCRASQGISSYLAWYQQKPGKAPKLLIYTASTLQSGVPSRFSGSGSGTDFTLTIRSLQSEDFATYYCQQYYSYPRTFGQGTKVEIK	96.9	107	no binding (tested: FOI >=10 = positive)	
mAb 51 (antibody, V domains shown) VH: EVQLVESGGGLVQPGGSLRLSCAASGFTLSSYTMNWVRQAPGKGLEWVSYISSSSRTIYYSDSVKGRFSISRDNAKNSLYLQMNSLRDEDTALYYCAREDYYDSSGFDNWGQGTLVTVSS VL: AIRMTQSPSSFSASTGDRVTITCRASQGISSYLAWYQQKPGKAPKLLIYTASTLQSGVPSRFSGSGSGTDFTLTIRSLQSEDFATYYCQQYYSYPRTFGQGTKVEIK	102	99.8	no binding (tested: FOI >=10 = positive)	
mAb 49 (antibody, V domains shown) VH: EVQLVESGGGLVPPGGSLRLSCVASGFTLRSYTMNWVRQAPGQGLEWISYISSTSRTIYYSDSVKGRFTISRDNAKNSLYLQVNSLRDEDTALYYCAREDYYDSSGFDCWGQGTLVTVSS VL: AIRMTQSPSSFSASTGDRVTITCRASQGIFNYLAWYQQKPGKAPKLLIYSTSTLQSGVPSRFSGSGSGTDFTLTIRGLQSEDLATYYCQQYYSFPRTFGQGTKVDIK	191	178	no binding (tested: FOI >=10 = positive)	
mAb 52 (antibody, V domains shown) VH: QVQLVQSGAEVKKPGASVKVSCKASGYTFTSHDINWVRQATGQGLEWMGWLNPNSGKTGYAQKFQGRVTMARDTSMYTADMELSSLRFEDTAVYYCARVGHYDMWPGFFSFDYWGQGTLVTVSS VL: DIQMTQSPSSLSASVGDRIIITCRASQDIRNDLGWYQQKPGKAPKRLIYAASSLQSGVPSRFSGSRSGTEFTLTISSLHPEDFATYYCLQHRSYPYTFGQGTNLEIK	185	181	no binding (tested: FOI >=10 = positive)	
mAb 53 (antibody, V domains shown) VH: QVQLVQSGAEVKKPGASVKVSCKASGYTFTSYDINWVRQATGQGLEWMGWMNPKSGKTGYAQKFQGRITMTRNTPISTVYMDLSSLRSEDTAVYYCAREGHYDFWTGYYSFDYWGQGTLVTVSS VL: DIQMTQSPSSLSASVGDRVTITCRASQGIRNDLGWYQQTPGKAPKRLIYAASSLQSGVPSRFSGSGSGTEFTLTISSLQPEDFATYYCLQHYSYPYTFGQGTKLEIK	34.8	44.6	no binding (tested: FOI >=10 = positive)	
mAb 54 (antibody, V domains shown) VH: EVQLEESGGGLVQPGGSLRLSCAASGFTFSRYSMNWVRQAPGKGLEWFSYISSSSRTIYYADSVKGRFTMSRDNAKNSLYLQMNSLRDEDTAVYFCARGDYYDSEGMDVWGKGTTVTVSS VL: DIQMTQSPSTLSASVGDRVTITCRASQTITTWLAWYQQKPGKAPKLLIYKASTLESGVPSRFSGSGSGTEFTLTISSLQPDDFATYHCQQYKTFSYTFGQGTKLDIK	98.5	111	no binding (tested: FOI >=10 = positive)	
mAb 55 (antibody, V domains shown) VH: QVQLEQSGAEVKKPGASVKVSCKTSGYIFANYDINWVRQATGQGLEWMGWMNPKSGKAGYAQKFQGRVTMTSNTPINTAYMELSSLRSEDTAVYYCAREGHYDFWRGFYSFDYWGQGILVTVSS VL: DIQMTQSPSSLSASVGDRVTITCRASQGIRNDLGWYQQKPGKAPKRLIYTASSLQSGVPSRFSGSGSGTEFTLTISSLQPEDFATYFCLQYNTYPYTFGQGTKLEIK	104	151	no binding (tested: FOI >=10 = positive)	
mAb 65 (antibody, V domains shown) VH: QVQLVESGGGVVQPGRSLRLSCAASGFTFSGYGMHWVRQAPGKGLDWVAIIYYNGNNKYYADSVKGRFTISRDNSKNTLYLQMNSLRAEDTAVYYCARGGGYNWFDPWGQGTLVIVSS VL: not shown	199	184	no binding (tested: FOI >=10 = positive)	
mAb 152 (antibody, V domains shown) VH: QVQLVQSGAEVKKPGASVKVSCKASGYTFTAYHTHWVRQAPGQGLEWMGWIYPKSGRTTYTQKFQGRVTMTRDTSISTVYMELSRLKSDDTAVYYCARVGALLFDYWGQGTLVTVSS VL: not shown			no binding (tested: FOI >=10 = positive)	
mAb 272 (antibody, V domains shown, VH/VL only) VH: EIQLVESGGGLVQPGESLKLSCAGSGFTFSVSAMHWVRQASGKGLEWVGRIRNKANSYATAYAASVKGRFTLSRDDSKNTAYLQMNSLKTEDTAVYYCSSYYYLSGTYYNYWGQGTLVTVSS VL: DIQMTQSPSSLSASVGDRVTITCRASQVIRNDLGWYQQKPGKAPKRLIHSASSLQGGVPSRFSGSGSGTEFTLTISSLQPEDFATYYCQQHNVNPCTFGQGTKLEIK				no binding (tested: FOI <10 (FOI >=10 = positive); 25 nM)
mAb 270 (antibody, V domains shown, VH/VL only) VH: EIQLVESGGGLVQPGESLKLSCAGSGFTFSVSAMHWVRQASGKGLEWVGRIRNKANSYATAYDASVKGRFTLSRDDSRNTAYLQMNSLKTEDTAVYYCSSYYYLSGTYYNYWGQGTLVTVSS VL: DIQMTQSPSSLSASVGDRVTITCRASQVIRNDLGWYQQKPGKAPKRLIHSASSLQGGVPSRFSGSGSGTEFTLTISSLQPEDFATYYCQQHNVNPCTFGQGTKLEIK				no binding (tested: FOI <10 (FOI >=10 = positive); 25 nM)
mAb 271 (antibody, V domains shown, VH/VL only) VH: EIQLVESGGGLVQPGESLKLSCAGSGFTFSVSAMHWVRQASGKGLEWVGRIRNKANSYATAYAASVKGRFTLSRDDSKNTAYLQMDSLKTEDTAVYYCSSYYYLSGTYYNYWGQGTLVTVSS VL: DIQMTQSPSSLSASVGDRVTITCRASQVIRNDLGWYQQKPGKAPKRLIHSASSLQGGVPSRFSGSGSGTEFTLTISSLQPEDFATYYCQQHNVNPCTFGQGTKLEIK				no binding (tested: FOI <10 (FOI >=10 = positive); 25 nM)
mAb 90 (antibody, V domains shown) VH: EVQLVESGGGLVQPGGSLKLSCAASGFTFSGSAMHWVRQASGKGLEWVGRIRTKPNSYATSYAASVKDRFTISRDDSKNTAYLQMNSLKTEDTAVYYCIRGELEPWGQGTLVTVSS VL: not shown			no binding (tested: FOI >=10 = positive)	
mAb 109 (antibody, V domains shown) VH: QVQLVESGGGVVQPGRSLRLSCVASGFPFRSYGMHWVRQAPGKGLEWVAFIWYDGSNKYYADSVRGRFTISRDNFKKMVYLQMNSLRAEDTAVYYCARDLAGIYAFDVWGQGTVVTVSS VL: EIVMTQSPATLSVSPGERATLSCRASQSVSSNLAWYQQKPGQAPRLLIYGASTRATGIPARFSGSGSGTEFTLTVSSLQSEDFAIYYCQQYNNWRPLTFGGGTKVEIK			no binding (tested: FOI >=10 = positive)	
